{"source": "patent US20140287419A1", "about": "“Compositions Having Dicamba Decarboxylase Activity and Methods of Use” (priority 2013, published 2014)", "test": "14C assay with IPTG-induced recombinant E. coli cells (14CO2 capture from [14C]-carboxyl-labeled dicamba)", "conditions": "for Dicamba Decarboxylase Activity: IPTG-induced recombinant E. coli cells, [14C]-carboxyl-labeled dicamba, 14CO2 capture; for Enzymatic Detection level: dicamba decarboxylation activity of the protein of the given SEQ ID NO"}
{"molecule": "81 (protein, listed as Verticillium dahliae) MAASTKPKVVDIHTHMYPPSYIDILTSRTAIPVVRTFPQAADPRLILLDAEQQALDAALQDPTAKPPGRPLTSHYASLDQKIHFMDTHSIDISVVSLANPWLDFIEPKEAAATARSVNDEFEAMCASQPGRLFFFAALPLTAPLPALLEAVRHVAELEHCRGVILGTSGLGSGLDDPELVPVLEAVAAAALTVFLHPHYGLPNDVWGPRASAEYGHVLPLALGFPMETTIAVARMYLAGVFDRVPALRMLLAHSGGTLPFLAGRIESCILHDGQLVAEGKVGAARRTIWDVLREQVYLDAVIYSEIGLKAAIAASGGADRLMFGTDHPFFPPLGTDEQAKKESRINAGGSRPMITGNAMINGHGGLCNHITQSDYQDVVL", "values": [{"measurement": "Dicamba Decarboxylase Activity", "result": "High"}, {"measurement": "Enzymatic Detection level", "result": "High"}]}
{"molecule": "79 (protein, Pyrenophora teres) MATTTTPSTLIATLESHLTPTLAFTSPTTSPTQPALHLIPPTTLTKLRNLGPGRVKDMHMLGHSRQIISHIPVAAPPQICSRFNDAIHAATMTNTAKFSVLAVLPTDGMEAAKELARCVSKYRFVGGVIGLNRGLRINGEGWEELWGLAERLRIPIMFREMWPLAFEIVDYQHHLPYSALGPILTQLHTSHTSSPLPLVRLYLSSVFDHYPSLRLVLAHPGSLPSLVPRIESLINSIPATDKPKRSFLDVWQHNIYLTTADAQDMSSLRALLEQIPVDRVLYASNYPFEERGNELMNELRESEFLTNIEWERVAWVNAETLFNLKEAGTKEARQLTTIPSSRS", "values": [{"measurement": "Dicamba Decarboxylase Activity", "result": "High"}, {"measurement": "Enzymatic Detection level", "result": "High"}]}
{"molecule": "78 (protein, listed as Marinobacter adhaerens) MALIDLHAHAPHPDYYDQHPHWGPAFELQSDGDIKLRVGHWVLSLGAPERKQALREAHARGETLDVQEYMAKWRDPEHRLASMDAAGQNAQVLSVPSHCYMYWAEPEFGVPFAKKVNDSLAEYCSAAPDRLMFWAHAPLNVPKEAAKEIRRACTELGAKGLVAGGSNFGGLEFDSPEMDPVWEALCDLDLPMFVHGYNQSVTWGEEANTDRYETTAIVGMNYDESKCFWYMINGGVFDRFPNLKVYITHGGGFVPYQLGRMAQTNPNLDTYHNKKPFLEYLKNFYFDVELHEVPMRQAMVEVIGADRVLYGSNFGGSDAVRHDLTDDLKLSQEDLDKIRWKNACDLLHLDPNKLGKVRG", "values": [{"measurement": "Dicamba Decarboxylase Activity", "result": "Low"}, {"measurement": "Enzymatic Detection level", "result": "Low"}]}
{"molecule": "74 (protein, listed as Ramlibacter tataouinensis) MATVIDVHTHMFTTKWLELLKKEGGQYNIQTRPDGQQEIFRGNTPVVIPQKGHFDWKLRIQHMDQAGIDVSVVSLTCPNVYWGGEDVSVRAAREANDNVAQAQTAYPDRIRWFASLPWEYMATVIDVHTHMFTTKWLELLKKEGGQYNIQTRPDGQQEIFRGNTPVVIPQKGHFDWKLRIQHMDQAGIDVSVVSLTCPNVYWGGEDVSVRAAREANDNVAQAQTAYPDRIRWFASLPWEYPQRAVEELERSCAQGAAGVMVLANVAGRSLTDPLFAPVWAEIDRRALPVLVHPTDPPGVDLMDMTKFDLSWSVGFMFDTTLAITRMIFEGFFDRYPNLRIIASHGGGTLPYLVGRFEKGDEVELASRRQMKRKPTDYLRHIHYDCITYNLGALQYLISVVGAGQVMFGTDWPHWVHDTRGAFANTAQLPQEQTRAVRGANAQRLFKL", "values": [{"measurement": "Dicamba Decarboxylase Activity", "result": "Low"}, {"measurement": "Enzymatic Detection level", "result": "Low"}]}
{"molecule": "76 (protein, listed as Polymorphum gilvum) MAKKIDIFNHIWPEPFFKALIAHIGEMTDITMRSGAVPMMTNLDRRFEVMDMFGPDYMQVLSLASPPLEKLADPAKALELSRIGSDSLAELCQRYPERFPAFIGTAPLSNPAAVVGECRRAIEDLGAAGMQIFTNVAGKPLDLAEFEPFFEYMASAGKPVWLHPARGEAFADYQTEKRSEYEIWWTFGWPYETSAAMARLVFSRMFDKYPGLKVITHHAGGMVPFFEGRVGPGWDQMGARTTDRDLAAVRKALKRPHLDYFKEFYADTASFGSRKAIEHAIEFFGEDRVLFASDAPFDPEGGPMYIRETMRCIDSLDLTDAQRRKIYHGNATALLGLSL", "values": [{"measurement": "Dicamba Decarboxylase Activity", "result": "No"}, {"measurement": "Enzymatic Detection level", "result": "No"}]}
{"molecule": "77 (protein, Burkholderia xenovorans) MALIDLHAHAPHPGYYNQHPHWGPFFERHEDGDVKLRVGDWILTLGSPERKALVRAGKGPTVEEYQARWADPKVRLAGMDAAGQNAQVVSVPSHCYMYWAEKEFSVPFATKVNDTFAEYCSAAPDRLMFWAHAALNAPEQAALELRRACTELGAKGLVAGGANFGGLEFDSPELDPVWKVLCDLDLPMFIHGYNQSVTWGKKANDDRYETTAIVGMQYDETRCFWNLVCGGVLDRFPGLKVYITHGGGYVPYQLGRLAQCNGNLDVAHNKKPVLEYLKNNFYFDVELHEVPMRQALIDIIGADRVLYGSNFGGSDAVRHDLTEGLRLSDDDLQKIRWKNACKLLHLDPAKIGEPAKKQAVSA", "values": [{"measurement": "Dicamba Decarboxylase Activity", "result": "No"}, {"measurement": "Enzymatic Detection level", "result": "No"}]}
{"molecule": "80 (protein, listed as Cordyceps militaris) MAAASTPVVVDIHTHMYPPSYIAMLEKRQTIPLVRTFPQADEPRLILLSSELAALDAALADPAAKLPGRPLSTHFASLAQKMHFMDTNGIRVSVISLANPWFDFLAPDEAPGIADAVNAEFSDMCAQHVGRLFFFAALPLSAPVDAVKASIERVKNLKYCRGIILGTSGLGKGLDDPHLLPVFEAVADAKLLVFLHPHYGLPNEVYGPRSEEYGHVLPLALGFPMETTIAVARMYMAGVFDHVRNLQMLLAHSGGTLPFLAGRIESCIVHDGHLVKTGKVPKDRRTIWTVLKEQIYLDAVIYSEVGLQAAIASSGADRLMFGTDHPFFPPIEEDVQGPWDSSRLNAQAVIKAVGEGSSDAAAVMGLNAVRVLSLKAE", "values": [{"measurement": "Dicamba Decarboxylase Activity", "result": "Low"}, {"measurement": "Enzymatic Detection level", "result": "Low"}]}
{"molecule": "75 (protein, listed as Ectocarpus siliculosus) MAKIDSYTHFACPAFMDHLEAESGHPMVFRGLFSSIPELSDIDLRIRYMDEHGIDVHCLVPLPWLECEPGLHADEGKALEACRIANDEMARVVARFPDRLIGVALIPTTTEQAMIQETTRAVKELGMAGVALFVGPTAKPPDMACFEGLYRTCEELGAVVWMHPCRPQSYADYDSYKGEGSKHQIWNTFGWIYDTSVAMVHIALAGVFRRYPGLKVVTHHHGAMVPFFTARFDTQRRNFQEVEGDDLLEDLRLFYCDTATFGESAANIQQAIDFFGKSQVLFGTDTPMDMGTRGMFTRTTIASVEALGAAPEDKESFYAGNVLDMLGERFAGISGARGAVAARPKGDSTRIAASL", "values": [{"measurement": "Dicamba Decarboxylase Activity", "result": "Low"}, {"measurement": "Enzymatic Detection level", "result": "Low"}]}
{"molecule": "82 (protein, listed as Rhodopseudomonas palustris) MAQNETPVIAIEEHYWDPEMVARFPAGENASPFSTLLTELGDVRLRAMDEAGIDVQVLSHGAPAAQKLPPDVAPELTRRVNDRLAEACARFPNRFAAFAALPTPAPEAAARELERCVRDLGFKGAMIHGLTNGLFIDDKRFWPIFEVAEKLDVPIYLHPSVPHADVTRYYYDDYAREFPTVIRPAWGFTVETATQAIRLILSRALESYPRLQIILGHLGETLPFLLWRINQALARPGQTPLDFRKQFCDHFHVTTSGFFSTPALICTMLELGIDRIMFAVDYPYVVNRDGTDWVQQLQISPDDKRKLVGGNARRLLKL", "values": [{"measurement": "Dicamba Decarboxylase Activity", "result": "Low"}, {"measurement": "Enzymatic Detection level", "result": "Low"}]}
{"molecule": "6 (protein, Treponema brennaborense) MAEILSPEESIYYSKLSNDILAEGIKKNPTRFRGFAALPTPDPIQAAMELERCIKLGGFVGAIINGHINGHYLDEIQFDPILEAADALDVPLYIHPAVPPKAIIDTYYKMNDTYAQTVMVSGGWGWHIETGVHVLRLISSGVFDRHPNLKIVIGHLGEGLPFFMHRLNNAIGGNLKKSYSTYLKENIYYTISGFNDPDLFQFVLKKVGENNIMFSSDYPFNFPKREVELFNELNISEEVREKISFKNAERILKI", "values": [{"measurement": "Dicamba Decarboxylase Activity", "result": "No"}, {"measurement": "Enzymatic Detection level", "result": "No"}]}
